# According to paper doi:10.1101/2025.11.06.686519 (bioRxiv, 2025):
# B1: Fab Cb (Fab 73.1) (Fab, V domains shown)
# VH: QVQLQQSGAELVRPGTSVKISCKASGYTFSNYWLGWLKQRPGHGLEWIGDIYPGGGYTNYNEKLKGKATLTADTSSSTAYMQLSSLTSEDSAVYFCARPRYGDYWYFDVWGAGTTVTVSS
# VL: VHSALMAASPGEKVTITCSVSSSISSSNLHWYQQKSETSPKPWIYGTSNLASGVPVRFSGSGSGTSYSLTISSMEAEDAATYYCQQWSSYPLTFGAGTKLELK
# B2: mAb 73.1 (clone Cb), recombinant monoclonal antibody (antibody, V domains shown)
# VH: B1 VH
# VL: B1 VL
# notes: copies: 2 + 2
# Assays:
# [1] = biological target: single site-biotinylated PR8 HA (as loaded on streptavidin biosensors for BLI) (influenza virus strain A/Puerto Rico/8/1934 (PR8)) (UniProt P03452); test: BLI; Octet RED96; […]; association 300 s, dissociation 600 s; global fit 1:1
# single site-biotinylated PR8 HA (as loaded on streptavidin biosensors for BLI) (influenza virus strain A/Puerto Rico/8/1934 (PR8)), sequence (P03452 18-338): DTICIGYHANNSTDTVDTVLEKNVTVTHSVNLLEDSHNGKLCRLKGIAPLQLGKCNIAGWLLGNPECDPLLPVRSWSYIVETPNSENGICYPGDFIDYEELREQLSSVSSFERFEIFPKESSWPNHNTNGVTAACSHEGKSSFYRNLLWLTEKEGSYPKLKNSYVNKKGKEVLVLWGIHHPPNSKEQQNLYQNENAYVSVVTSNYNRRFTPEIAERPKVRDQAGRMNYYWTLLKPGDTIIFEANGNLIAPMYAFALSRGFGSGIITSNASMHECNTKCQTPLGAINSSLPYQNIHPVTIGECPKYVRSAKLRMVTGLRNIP
# [2] = biological target: PR8 HA as used for cryo-EM with Fabs (Influenza A virus A/Puerto Rico/8/1934 …, UniProt P03452); test: cryo-EM structure; details: both partners purified
# PR8 HA as used for cryo-EM with Fabs, sequence (P03452 18-338): as above
# [3] = biological target: recombinant hemagglutinin (HA) from influenza virus strain A/Puerto Rico/8/1934 (PR8), cysteine-crosslinked, … (Influenza A virus A/Puerto Rico/8/1934 …, UniProt P03452); test: ELISA; details: both partners purified
# recombinant hemagglutinin (HA) from influenza virus strain A/Puerto Rico/8/1934 (PR8), cysteine-crosslinked, …, sequence (P03452 18-338): as above
Binder,Kd [1],binding result [2],binding result [3]
B1,30 nM,binds,–
B2,–,–,binds
